The record followed here is patent US20180044434A1 (PUBLIC UNIVERSITY CORPORATION YOKOHAMA CITY UNIVERSITY, published 2018).

Usually Kd stands for a measure of binding affinity in units of concentration. Broadly, the koff is a measure of how fast the partners let go of each other. Usually kon stands for the rate constant with which the complex forms.

The target in experiment [1] is T1, full-length recombinant human PAD4 (human, UniProt Q9UM07 1-663).
T1 construct: Full-length recombinant; also called peptidylarginine deiminase 4
Nature of the experiment: ELISA, coated human PAD4; antibody 0.015625 ug/mL.

Experiment [2] deals with T2, Ala mutant having 3-amino acid substitution, SEQ ID NO: 46.
T2 peptide: EENMDDAAAQDEMEIGY
The experiment in a line: ELISA, 3-amino acid Ala mutants. On the procedure:
(§1) The epitope of each of A11 etc. was identified by alanine scan. Specifically, the following procedures (i) to (iii) were carried out. (i) Each amino acid residue of the antigen sequence (SEQ ID NO: 1) was replaced by another amino acid one by one, and 17 different Ala mutants (SEQ ID Nos: 27 to 43) were synthesized. (ii) The reactivity of each of the Ala mutants toward a test antibody was evaluated (ELISA).
(§2) Note that, as additional experiments, 6 different Ala mutants having 3-amino acid substitution (SEQ ID NOs: 44 to 49) were likewise examined in the experiments.

For experiment [3], the target named is T3, Ala mutant having 3-amino acid substitution, SEQ ID NO: 45.
T3 peptide: EENAAAQWMQDEMEIGY
The experiment in a line: ELISA, 3-amino acid Ala mutants. On the procedure:
as §1, §2
(In general: An ELISA detects its analyte on a solid surface through an enzyme-linked reagent.)

For experiment [4], the target named is T1, full-length recombinant human PAD4. Nature of the experiment: ELISA, coated human PAD4; antibody 0.0009766 ug/mL.
Experiment [5] shares this target. The experiment in a line: ELISA, coated human PAD4; antibody 0.25 ug/mL.
The target is the same in experiment [6]. Nature of the experiment: SPR (Biacore T200), antibody captured, human PAD4 analyte. On the procedure: Biacore (GE Healthcare, Biacore T200) was carried out to evaluate the affinity of A11 etc., toward human PAD4. A Mouse Antibody Capture kit (GE Healthcare, BR-1008-38) was used for the affinity assay. Specifically, in accordance with the standard protocol provided by the manufacture, NHS/EDC was used and an amine coupling method, in which a free carboxyl group is fixed on a surface of a CM5 chip, was used to immobilize a rabbit anti-mouse polyclonal antibody on the surface of a CM5 chip. Next, A11 etc., were each captured by the rabbit anti-mouse polyclonal antibody. L207 was likewise captured. Then, human PAD4 at each concentration was subjected to Biacore T200 measurement to create a kinetic sensorgram.
(In general: SPR reads the build-up and loss of mass on a sensor chip optically.)

The target of experiment [7] is T4, Ala mutant of TA0096, SEQ ID NO: 35.
T4 peptide: EENMDDQWAQDEMEIGY
Nature of the experiment: ELISA, alanine scan (position 348). On the procedure: as §1
(§3) The “96 pAb” designated in the table refers to antiserum as obtained by immunizing a chicken with TA0096 (SEQ ID NO: 1). The 96 pAb, which is an anti-PAD4 polyclonal antibody, can substantially keep the affinity toward PAD4 even if any of single amino acids of PAD4 is replaced.

Experiment [8] has as its target full-length recombinant human or mouse PAD4 (species used for Table 7 and FIG. 7 not stated). The experiment in a line: cell-based or functional assay.
In experiment [9] the target is T5, full-length recombinant mouse PAD4 (mouse, UniProt Q9Z183 1-666).
T5 construct: mature; Full-length recombinant
Nature of the experiment: ELISA, coated mouse PAD4; antibody 1 ug/mL.

In experiment [10] the target is T2, Ala mutant having 3-amino acid …. Nature of the experiment: ELISA, coated peptide.
Experiment [11] concerns the target T6, Ala mutant of TA0096, SEQ ID NO: 34.
T6 peptide: EENMDDQAMQDEMEIGY
Nature of the experiment: ELISA, alanine scan (position 347). On the procedure: as §1, §3

Experiment [12] addresses T5, full-length recombinant mouse PAD4. Nature of the experiment: ELISA, coated mouse PAD4; antibody 6.104E-05 ug/mL.
In experiment [13] the target is T7, Ala mutant of TA0096, SEQ ID NO: 32.
T7 peptide: EENMDAQWMQDEMEIGY
The experiment in a line: ELISA, coated peptide.

The target is the same in experiment [14]. Nature of the experiment: ELISA, alanine scan (position 345). On the procedure: as §1, §3

T1 sequence (Q9UM07 whole entry): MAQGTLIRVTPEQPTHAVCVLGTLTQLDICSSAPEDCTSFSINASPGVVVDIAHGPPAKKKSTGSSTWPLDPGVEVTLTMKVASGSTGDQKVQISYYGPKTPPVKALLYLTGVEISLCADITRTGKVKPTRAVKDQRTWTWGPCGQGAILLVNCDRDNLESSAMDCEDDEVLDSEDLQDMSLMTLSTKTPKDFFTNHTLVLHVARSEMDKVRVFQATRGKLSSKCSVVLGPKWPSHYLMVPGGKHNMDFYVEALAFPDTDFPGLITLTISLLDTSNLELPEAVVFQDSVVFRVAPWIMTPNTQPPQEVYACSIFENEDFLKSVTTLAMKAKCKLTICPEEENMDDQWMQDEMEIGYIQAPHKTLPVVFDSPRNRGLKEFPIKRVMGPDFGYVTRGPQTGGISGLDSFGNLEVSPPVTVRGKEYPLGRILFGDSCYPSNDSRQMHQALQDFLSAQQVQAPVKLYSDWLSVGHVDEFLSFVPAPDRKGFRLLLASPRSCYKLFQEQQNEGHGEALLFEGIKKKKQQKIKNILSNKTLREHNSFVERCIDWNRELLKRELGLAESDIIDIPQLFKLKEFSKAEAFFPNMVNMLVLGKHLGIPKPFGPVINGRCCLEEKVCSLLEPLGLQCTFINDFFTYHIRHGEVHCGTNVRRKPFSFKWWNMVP
T5 sequence (Q9Z183 whole entry): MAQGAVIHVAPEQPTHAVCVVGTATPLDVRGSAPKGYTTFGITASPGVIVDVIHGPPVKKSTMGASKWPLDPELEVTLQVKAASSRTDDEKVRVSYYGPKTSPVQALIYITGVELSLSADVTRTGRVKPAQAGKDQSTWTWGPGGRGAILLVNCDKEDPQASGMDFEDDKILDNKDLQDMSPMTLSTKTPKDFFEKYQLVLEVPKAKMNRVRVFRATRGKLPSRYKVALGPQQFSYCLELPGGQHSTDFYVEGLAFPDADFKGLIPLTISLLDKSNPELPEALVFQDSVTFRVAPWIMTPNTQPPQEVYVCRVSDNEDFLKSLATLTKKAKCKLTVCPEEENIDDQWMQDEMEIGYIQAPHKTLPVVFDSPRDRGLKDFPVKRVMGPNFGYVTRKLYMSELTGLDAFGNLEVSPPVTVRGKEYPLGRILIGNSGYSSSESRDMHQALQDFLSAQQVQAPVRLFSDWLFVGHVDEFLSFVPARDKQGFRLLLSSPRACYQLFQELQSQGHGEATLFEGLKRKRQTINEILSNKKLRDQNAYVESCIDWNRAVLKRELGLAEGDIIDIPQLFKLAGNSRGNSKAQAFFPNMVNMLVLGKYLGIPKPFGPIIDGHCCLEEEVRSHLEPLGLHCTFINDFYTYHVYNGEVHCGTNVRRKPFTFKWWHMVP

B1: A11 (antibody, V domains shown)
VH: AVTLDESGGGLQTPGGALSLVCKASGFDFSSYGMGWMRQAPGKGLEYVAAIRNDGSWTGYGAAVKGHATISRDNGQSTVRLQLNNLRAEDTGTYYCAKTTGSRGGSIDAWGHGTEVIVS
VL: ASTQPSSVSANLGGTVEITCSGGGRYYYGWYQQKSPGSAPVTVIYANDKRPSDIPSRFSGSKSGSTGTLTITGVQAEDEAVYFCGSAETSSYVFGAGTTLTVL
notes: Chicken variable regions in a mouse chimeric antibody (IgG1); also called anti-PAD4 antibody A11
On to B1, for which the “OD 490/630 nm” value amounted to 2.08 in experiment [1]; 0.511 in experiment [4]; 2.11 in [5]; 2.24 in experiment [9]; 0.043 in experiment [10]; 0.045 in experiment [12]. The binding result in [2], in experiment [3], in [7] and in experiment [11] was “no binding” in each case. In addition, the Kd in experiment [6] was determined as 4.37 nM. Moreover, the koff in experiment [6] worked out at 0.000566 s⁻¹. Also, the kon in experiment [6] was determined as 129000 M⁻¹ s⁻¹. Moreover, the Relative citrullination activity in experiment [8] was 64 relative to PBS = 100.

B2: G8 (antibody, V domains shown)
VH: AVTLDESGGGLQTPGGALSLVCKASGFTFSTYAMGWMRQAPGKGLEYVAAIRNDGSWTGYGAAVKGRATILRDNGQSTVRLQLSNLRAEDTGTYYCAKYTGSSGGSIGAWGHGTEVIVS
VL: ASTQPSSVSANLGGTVEITCSGGNRNYYYGWYQQKSPGSAPVTLIYANDKRPSNIPSRFSGSKSGSTGTLTITGVQAEDEAVYFCGTADTGKYVFGAGTTLTVL
notes: Chicken variable regions in a mouse chimeric antibody (IgG1); also called anti-PAD4 antibody G8
In the case of B2, the “OD 490/630 nm” value in experiment [1] came out at 2.08; in [4], 0.544; in [5] it was 2.1; in [9], 2.26; in experiment [13] it was 0.083; in experiment [12], 0.122. The binding result in [3], in experiment [14] and in [11] was “no binding” each time. In experiment [6], the Kd stood at 2.34 nM. Moreover, the off-rate (koff) in experiment [6] stood at 0.000243 s⁻¹. Besides, in [6], the on-rate (kon) was found to be 104000 M⁻¹ s⁻¹. In addition, the Relative citrullination activity in experiment [8] was 63 relative to PBS = 100.

B3: G6 (antibody, V domains shown)
VH: AVTLDESGGGLQTPGGALSLVCKASGFTFSSYGMEWVRQAPGKGLEYVAAIRNDGSWTGYGAAVKGRATISRDDGQSTLRLQLNNLRAEDTATYYCAKTTGSSGGSIDAWGHGTEVIVS
VL: ASTQPSSVSANLGETVKITCSGGGNYYYGWYQQKSPGSAPVTLIYANDKRPSNIPSRFSGSKSGSTGTLTITGVQAEDEAVYFCGTADTGKYVFGAGTTLTVL
notes: Chicken variable regions in a mouse chimeric antibody (IgG1); also called anti-PAD4 antibody G6
On to B3, for which the “OD 490/630 nm” value in [1] turned out to be 2.01; in experiment [4], 0.437; in experiment [5], 2.07; in [9], 2.27; in experiment [10], 0.083; in experiment [13], 0.035. Besides, in experiment [12], the “OD 490/630 nm” value was determined as 0.044. Moreover, the binding result in experiment [2], in experiment [3], in [7], in experiment [14] and in [11] was “no binding” throughout. For the same molecule, the Kd in experiment [6] amounted to 8.74 nM. Further, in experiment [6], the koff is 0.000389 s⁻¹. Further, in experiment [6], the kon is 44500 M⁻¹ s⁻¹. Moreover, in experiment [8], the Relative citrullination activity was 69 relative to PBS = 100.

B4: H7 (antibody, V domains shown)
VH: AVTLDESGGGLQTPGGALSLVCKASGFTFSTYAMGWMRQAPGKGLEYVAAIRNDGSWTGYGAAVKGRATILRDNGQSTVRLQLSNLRAEDTGTYYCAKYTGSSGGSIGAWGHGTEVIVS
VL: ASTQPSSVSANPGGTVEITCSGGSGRYYYGWYQQKSPGSAPVTVIYSSTHRPSNIPSRFSGSKSGSTATLTITGVQAEDEAVYFCGTADSSSYVFGAGTTLTVL
notes: Chicken variable regions in a mouse chimeric antibody (IgG1); also called anti-PAD4 antibody H7
Consider B4, for which the “OD 490/630 nm” value in [1] is 2.07; in experiment [4], 0.537; in [5], 2.11; in experiment [9], 2.3; in experiment [10], 0.044; in experiment [13], 0.033. Further, the “OD 490/630 nm” value in experiment [12] turned out to be 0.103. Besides, the binding result in [2], in experiment [3], in experiment [7], in experiment [14] and in [11] was “no binding” in each case. In addition, the Kd in experiment [6] turned out to be 7.56 nM. Further, the koff in experiment [6] amounted to 0.000791 s⁻¹. Also, the kon in experiment [6] was 105000 M⁻¹ s⁻¹. Moreover, in experiment [8], the Relative citrullination activity is 35 relative to PBS = 100.

B5: E9 (antibody, V domains shown)
VH: AVTLDESGGGLQTPGGTLSLVCKGSGFTFSSYGMGWMRQAPGKGLEYVAAIRNDGSWTGYGSAVKGRATISRDNGQSTVRLQLNNLRAEDTATYYCAKTSGSSGGSVDAWGHGTEVIVS
VL: ASTQPSSVSANLGGTVEITCSGGGRYYYGWYQQKSPGSAPVTVIYANDKRPSDIPSRFSGSKSGSTGTLTITGVQAEDEAVYFCGSAETSSYVFGAGTTLTVL
notes: Chicken variable regions in a mouse chimeric antibody (IgG1); also called anti-PAD4 antibody E9
Regarding B5, the “OD 490/630 nm” value in experiment [1] was determined as 2.08; in experiment [4] it was 0.489; in experiment [5] it was 2.08; in experiment [9] it was 2.23; in experiment [10], 0.027; in experiment [12], 0.051. Also, the binding result in [2], in [3], in experiment [7] and in experiment [11] was “no binding” throughout. The Kd in experiment [6] turned out to be 5.52 nM. In experiment [6], the koff was found to be 0.000837 s⁻¹. Besides, the kon in [6] came to 152000 M⁻¹ s⁻¹. In addition, the Relative citrullination activity in experiment [8] is 59 relative to PBS = 100.

B6: G9 (antibody, V domains shown)
VH: AVTLDESGGGLQTPGGALSLVCKASGFTFSTYAMGWMRQAPGKGLEYVAAIRNDGSWTGYGAAVKGRATILRDNGQSTVRLQLSNLRAEDTGTYYCAKYTGSSGGSIGAWGHGTEVIVS
VL: AVTQPASVSANLGGTVEITCSGGGRYYYGWYQQKSPGSAPVTVIYANDKRPSDIPSRFSGSKSGSTGTLTITGVQAEDEAVYFCGSAETSSYVFGAGTTLTVL
notes: Chicken variable regions in a mouse chimeric antibody (IgG1); also called anti-PAD4 antibody G9
For the molecule B6, the “OD 490/630 nm” value in [1] worked out at 2.07; in experiment [4], 0.534; in experiment [5], 2.08; in experiment [9] it was 2.3; in experiment [10], 0.131; in experiment [13], 0.039. Also, the “OD 490/630 nm” value in experiment [12] turned out to be 0.079. Besides, the binding result in experiment [2], in [3], in experiment [14] and in experiment [11] was “no binding” in each case. For the same molecule, the Kd in experiment [6] was 3.16 nM. The koff in experiment [6] turned out to be 0.000284 s⁻¹. In experiment [6], the on-rate constant (kon) was 90000 M⁻¹ s⁻¹. Also, in [8], the Relative citrullination activity is 68 relative to PBS = 100.
